According to publication PMC2953525, “Subtle Alterations in PCNA-Partner Interactions Severely Impair DNA Replication and Repair” (PLoS Biology, 2010):

Tests used:
Conditions in all cases: partners not purified
pol30-Pol32E9 = target: T1, pol30-Pol32E9 (yeast, UniProt P15873 1-258, IDCL DIDADFLKIEEL to DNDVDSLKIIEL); assay: two-hybrid; pAD-GAL4-PCNA WT or mutant (called bait) and pBD-GAL4-partner (called prey) in strain YRG2; 10-fold serial dilutions spotted on SC-Leu-Trp-His plates, 30°C, 3 d; growth similar to WT PCNA is denoted 1
T1 construct: PCNA (POL30), yeast; source: yeast two-hybrid fusion (pAD-GAL4, strain YRG2)
T1 sequence: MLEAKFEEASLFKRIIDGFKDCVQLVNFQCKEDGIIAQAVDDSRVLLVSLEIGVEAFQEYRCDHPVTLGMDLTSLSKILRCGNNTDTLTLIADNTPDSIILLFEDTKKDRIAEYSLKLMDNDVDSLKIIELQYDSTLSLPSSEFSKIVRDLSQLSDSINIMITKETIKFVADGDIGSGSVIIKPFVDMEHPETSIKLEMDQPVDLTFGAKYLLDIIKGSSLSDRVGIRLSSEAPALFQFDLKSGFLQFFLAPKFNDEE

pol30-Msh6E6 = target: T2, pol30-Msh6E6 (yeast, UniProt P15873 1-258, IDCL DIDADFLKIEEL to DYDKDLLKIIEL); assay: as above
T2 construct: PCNA (POL30), yeast; source: yeast two-hybrid fusion (pAD-GAL4, strain YRG2)
T2 sequence: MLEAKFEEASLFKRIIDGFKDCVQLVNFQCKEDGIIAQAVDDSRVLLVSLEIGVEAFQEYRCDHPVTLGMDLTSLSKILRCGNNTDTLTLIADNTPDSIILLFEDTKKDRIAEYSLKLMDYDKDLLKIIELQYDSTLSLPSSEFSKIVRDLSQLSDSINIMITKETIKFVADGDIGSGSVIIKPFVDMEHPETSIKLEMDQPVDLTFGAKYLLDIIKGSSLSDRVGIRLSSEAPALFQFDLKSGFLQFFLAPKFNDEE

pol30-Msh6E2 = target: T3, pol30-Msh6E2 (yeast, UniProt P15873 1-258, IDCL DIDADFLKIEEL to DYDRDMLKISEL); assay: as above
T3 construct: PCNA (POL30), yeast; source: yeast two-hybrid fusion (pAD-GAL4, strain YRG2)
T3 sequence: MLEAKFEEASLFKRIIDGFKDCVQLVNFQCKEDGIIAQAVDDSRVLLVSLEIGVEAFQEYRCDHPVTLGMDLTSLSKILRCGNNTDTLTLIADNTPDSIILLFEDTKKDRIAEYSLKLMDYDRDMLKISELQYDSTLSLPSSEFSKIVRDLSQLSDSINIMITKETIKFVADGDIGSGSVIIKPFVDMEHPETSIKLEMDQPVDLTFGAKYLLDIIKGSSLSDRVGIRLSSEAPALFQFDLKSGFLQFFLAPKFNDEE

pol30-79 = target: T4, pol30-79 (yeast, UniProt P15873 1-258, IDCL DIDADFLKIEEL to DIDADFAKAEEL); assay: two-hybrid; quantitative Y2H: generation time of the YRG2 strains in liquid SC-Leu-Trp-His, given relative to cells expressing WT PCNA; average of at least 3 experiments
T4 construct: PCNA (POL30), yeast; the changes are then L126A and I128A; also called PCNA79; source: yeast two-hybrid fusion (pAD-GAL4, strain YRG2)
T4 sequence: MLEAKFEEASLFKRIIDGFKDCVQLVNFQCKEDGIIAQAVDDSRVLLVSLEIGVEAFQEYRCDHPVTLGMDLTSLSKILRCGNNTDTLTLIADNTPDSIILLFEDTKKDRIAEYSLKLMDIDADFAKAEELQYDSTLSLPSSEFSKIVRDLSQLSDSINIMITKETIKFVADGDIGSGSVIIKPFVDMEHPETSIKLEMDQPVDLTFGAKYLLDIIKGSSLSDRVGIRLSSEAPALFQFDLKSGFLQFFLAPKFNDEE

pol30-Rad27L2 = target: T5, pol30-Rad27L2 (yeast, UniProt P15873 1-258, IDCL DIDADFLKIEEL to D––VDTLKITEL); assay: as above
T5 construct: PCNA (POL30), yeast; two residues after the first aspartic acid of the IDCL are deleted; source: yeast two-hybrid fusion (pAD-GAL4, strain YRG2)
T5 sequence: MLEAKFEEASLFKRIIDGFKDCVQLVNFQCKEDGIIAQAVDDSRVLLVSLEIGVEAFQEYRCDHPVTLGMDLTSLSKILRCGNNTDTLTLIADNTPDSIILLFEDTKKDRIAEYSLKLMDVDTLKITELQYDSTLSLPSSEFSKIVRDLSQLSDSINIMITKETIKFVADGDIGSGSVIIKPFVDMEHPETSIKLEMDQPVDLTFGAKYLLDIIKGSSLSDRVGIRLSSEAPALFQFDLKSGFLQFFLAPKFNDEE

pol30-Rad30E9 = target: T6, pol30-Rad30E9 (yeast, UniProt P15873 1-258, IDCL DIDADFLKIEEL to DNDWDFLKIDEL); assay: as above
T6 construct: PCNA (POL30), yeast; also called Pol30-Rad30E9p; source: yeast two-hybrid fusion (pAD-GAL4, strain YRG2)
T6 sequence: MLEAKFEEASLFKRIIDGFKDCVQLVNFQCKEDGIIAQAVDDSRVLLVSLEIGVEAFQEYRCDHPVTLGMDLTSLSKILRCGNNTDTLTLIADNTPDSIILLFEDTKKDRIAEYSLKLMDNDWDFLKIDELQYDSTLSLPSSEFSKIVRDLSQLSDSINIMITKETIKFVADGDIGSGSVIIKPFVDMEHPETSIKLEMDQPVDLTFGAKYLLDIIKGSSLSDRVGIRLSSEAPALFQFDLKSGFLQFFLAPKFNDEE

fold change in affinity relative to WT PCNA (Y2H) (pol30-Pol32E9): 1.2 fold | fold change in affinity relative to WT PCNA (Y2H) (pol30-Msh6E6): 1.3 fold | fold change in affinity relative to WT PCNA (Y2H) (pol30-Msh6E2): 1.3 fold | fold change in affinity relative to WT PCNA (Y2H generation time) (pol30-79): 0.5 fold | fold change in affinity relative to WT PCNA (Y2H generation time) (pol30-Rad27L2): 1.5 fold | fold change in affinity relative to WT PCNA (Y2H generation time) (pol30-Rad30E9): 0.5 fold
B1: Rad27 (natural protein, yeast, UniProt P26793 1-382, looked up)
chain: MGIKGLNAIISEHVPSAIRKSDIKSFFGRKVAIDASMSLYQFLIAVRQQDGGQLTNEAGETTSHLMGMFYRTLRMIDNGIKPCYVFDGKPPDLKSHELTKRSSRRVETEKKLAEATTELEKMKQERRLVKVSKEHNEEAQKLLGLMGIPYIIAPTEAEAQCAELAKKGKVYAAASEDMDTLCYRTPFLLRHLTFSEAKKEPIHEIDTELVLRGLDLTIEQFVDLCIMLGCDYCESIRGVGPVTALKLIKTHGSIEKIVEFIESGESNNTKWKIPEDWPYKQARMLFLDPEVIDGNEINLKWSPPKEKELIEYLCDDKKFSEERVKSGISRLKKGLKSGIQGRLDGFFQVVPKTKEQLAAAAKRAQENKKLNKNKNKVTKGRR
notes: Rad27 (endonuclease), yeast; also called pBD-Rad27; source: yeast two-hybrid fusion (pBD-GAL4, strain YRG2)
